The results in this text go back to paper PMC7496859.

Series [1] can be described thus: SEC; preparative SEC on Superdex 200 10/300 GL after Strep-Tactin affinity chromatography; running buffer 20 mM Tris/HCl pH 8.0, 150 mM NaCl; changes of pH, salt and buffering agent, addition of calcium or EDTA had no influence on the monomer/dimer ratio.
The target in series [2] is SmuA(V465E), sucrose isomerase from Serratia plymuthica, produced in the cytoplasm of E. coli (Serratia plymuthica). The series is described as above.
Series [3] deals with SmuA(V465E), sucrose isomerase from Serratia plymuthica, produced in the periplasm of E. coli (Serratia plymuthica). Described as above.

Consider “SmuA(V465E), sucrose isomerase from Serratia plymuthica, produced in the periplasm of E. coli”, for which the “ratio between monomer and dimer (SEC peaks)” value in series [1] was “the ratio between monomer and dimer to 10 : 1”.
With “SmuA(V465E), sucrose isomerase from Serratia plymuthica, produced in the cytoplasm of E. coli (enzyme)”, the stoichiometry N (commonly the number of molecules, sites or subunits per partner or assembly) in series [2] is 2.
“SmuA(V465E), sucrose isomerase from Serratia plymuthica, produced in the cytoplasm of E. coli”: the “ratio of dimer to monomer (SEC peaks)” value in series [1] was “a ratio of 3 : 1”.
“SmuA(V465E), sucrose isomerase from Serratia plymuthica, produced in the periplasm of E. coli (enzyme)”: the stoichiometry N in series [3] amounted to 2.
